Several values for one entry are separate records, joined by “and”; a condition that tells them apart may be missing. Equal entries are not always repeated.
What was measured:
proteasome [1] = target: T1, proteasome (Homo sapiens, UniProt P28072+P28074+Q99436); assay: REGα(N146Y)/REGβ(N135Y) competition assay for relative proteasome affinity; type: binding; conditions: in terms of REGα(N146Y)/REGβ(N135Y) competition; wild-type REGγ 100
Text: As a measure of the relative affinities of REGγ and the REGγLys188 mutants for the proteasome, a competition assay was used. See Li et al. (2000), The Proteasome Activator 11S REG or PA28: Chimeras Implicate Carboxyl-Terminal Sequences in Oligomerization and Proteasome Binding But Not in the Activation of Specific Proteasome Catalytic Subunits. J. Mol. Biol. 299:641-54. All REGγLys188 mutants were relatively resistant to REGα(N146Y)/REGβ(N135Y) competition with apparent proteasome affinities varying from 40% to 90% that of wild-type REGγ.

[2] = Heptamer stability on rechromatography (Superdex 200 size exclusion column); type: physicochemical; conditions: for Percent heptamer: after second gel filtration; for Heptamers dissociated during the second gel filtration: Superdex 200
Text: To examine the effect of Lys188 substitution on REGγ heptamer stability, the wildtype and Lys 188 variant heptamers were rechromatographed on the Superdex 200 (26/60) size exclusion column used for purification. […] Replacement of Lys 188 by Pro or Phe severely affected the stability of REGγ heptamer.

proteasome [3] = target: T1, proteasome; assay: Proteasomal hydrolysis of natural peptides P21 and BBC1 (HPLC); type: biochemical; conditions: 21-residue peptide P21; result in words
Description: Proteasomal hydrolysis of a 21 -residue peptide (P21) and a 49-residue peptide (BBC1) were prepared as described by Zhang et al. (1998), Proteasome Activation by REG Molecules Lacking Homolog-specific Inserts, J. Biol. Chem. 273:9501-09. Digestion products were applied to a C18 HPLC column and separated with a gradient of 0-45% acetonitrile containing 0.1% trifluoroacetic acid. To identify the products derived from P21, fractions were collected manually, concentrated, and subjected to mass spectrometry.

proteasomes [4] = target: T2, proteasomes (Homo sapiens, UniProt P28072+P28074+Q99436); assay: Proteasomal degradation of fluorescein-labeled polyQ peptides (molecular exclusion chromatography); type: biochemical; conditions: for % Degraded, substrate F1-EPQPQ / % Degraded, substrate F1-KSQPQ / % Degraded, substrate F1-QHQ / % Degraded, substrate F1-QPQ / % Degraded, substrate F1-QQQ: proteasome + activator, 5 hr incubation
Description: The following peptides were synthesized using routine peptide synthesis:
Each peptide was incubated for 5 hr with proteasomes alone, proteasomes+REGγ, proteasome+REGγ(K188E) or proteasomes+REGα/β. Degradation was assayed by molecular exclusion chromatography using fluorescein as a signal (see FIG. 2). The degradation products were identified by HPLC-MS (FIG. 3). […] By contrast, in the presence of REGγ(K188E) the various polyQ peptides were degraded 5 to 10-fold faster.

[5] = target: T3, Human red blood cell proteasomes (Homo sapiens, UniProt P28072+P28074+Q99436); assay: Activation of fluorogenic peptide hydrolysis by the proteasome in the presence of REG variants; type: biochemical; conditions: for Stimulation of cleavage (x-fold) LLE: substrate LLE-βNA (PGPH site); for Stimulation of cleavage (x-fold) LLVY: substrate LLVY-MCA (chymotrypsin-like site); for Stimulation of cleavage (x-fold) LRR: substrate LRR-MCA (trypsin-like site); for Activation properties compared with REGα: small fluorogenic peptides, result in words
T3 construct: Human red blood cell proteasomes; from tissue; host or cells: human red blood cells
Description: Human red blood cell proteasomes (170 ng) were mixed with increasing amounts of purified REG variants. The reactions were started by adding 50 μl of 200 μMscu-LLVY-MCA, Boc-LRR-MCA, or Boc-LLE-βNA in 10 mM Tris, pH 7.5. After a 10 min incubation, the reaction was quenched with 200μl of cold 100% ethanol, and the released MCA or βNA ws measured fluometrically. Each data point represents the mean of three measurements from a single experiment. […] REGα (▪), REGγ(□), REGγ(K188E) or REGγ(K188D) (●), REGγ(K188H) (∘), REGγ(K188Q) or REGγ(K188N) (Δ), REGγ(K188A) (♦). The data for REGγ(K188E) and REGγ(K188D) and for REGγ(K188Q) and REGγ(K188N) were combined since their activities were indistinguishable.
Because each positive variant identified in the previous example included a mutation at Lys188, site-directed mutagenesis was used to generate a series of amino acid substitutions at this residue. Twelve mutants were constructed in which Lys188 of REGγ was changed to Ala, Arg, Asn, Asp, Cys, Gln, Glu, His, Ile, Phe, Pro, or Ser. Wild-type REGγ and the Lys 188 variants were expressed in E. coli, purified, and the activation specificity of each protein was measured using the diagnostic peptides LLVY (SEQ ID NO:1)-MCA, LRR-MCA, and LLE-βNA. Except for the K188R variant, all Lys 188 mutants stimulated the hydrolysis of LRR-MCA by the proteasome to the same extent or slightly better than wild-type REGγ. Substitution of negatively-charged Glu or Asp for the positively-charged Lys188 produced mutants with activation properties almost identical to REGα.
To determine the degree to which the activation specificity of REGγ(K188E/D) variants matches that of REGα, proteasomal cleavage of a series of fluorogenic peptides was measured in the presence of each activator.

proteasomes [6] = target: T2, proteasomes; assay: Proteasomal degradation of the fluorescein-tagged C31 peptide of APP; type: biochemical; conditions: result in words
Description: A 31-residue C-terminal peptide (C31) of APP, the transmembrane protein that gives rise to amyloid plaque forming Aβ peptides characteristic of Alzheimer's disease, was synthesized using routine peptide synthesis. A fluorescein tag was added to the peptide. C31 peptide is cytotoxic. See Lu et al. (2000), a Second Cytotoxic Proteolytic Peptide Derived from Amyloid Beta-Protein Precursor, Nat. Med. 6:397-404.
The C31 was incubated with proteasomes alone, proteasomes+REGγ, proteasome+REGγ(K188E) or proteasomes+REGα/β, and degradation was assayed as described in Example 8.

[7] = target: proteasome β subunits (T, CT/PGPH) (Homo sapiens, UniProt P28072+P28074+Q99436); assay: Affinity labeling of proteasome β subunits with 125I-YL3-VS in the presence of REGs; type: biochemical; conditions: mean±S.D.
Text: To obtain estimates of substrate access to the proteasome's central chamber in the presence of REGγ and REGγ(K188E), the active site-directed probe, ^125I-YL3-VS, which covalently modifies all three active β-subunits in an activity dependent manner, was used. […] The phosphoimages show increased labeling of CT/PGPH and T subunits in the presence of REGγ and REGγ(K188E). The data further reveal that REGγ increased the rate of T-subunit labeling 4.7±2.6 (mean±S.D.) fold and the rate of CT/PGPH labeling 4.4±1.7 (mean±S.D.) fold over that seen with proteasome alone. Stimulation by the mutant REGγ(K188E) was greater, being 10.8±4.9 (mean±S.D.) fold for the T-subunit and 11.9±4.8 (mean±S.D.) fold for the CT/PGPH subunit. […] The finding that REGγ increased labeling of the CT and PGPH subunits was unexpected as the wild type activator suppresses hydrolysis of the CT substrate sLLVY (SEQ ID NO:1)-MCA.

[8] = target: T3, Human red blood cell proteasomes; assay: Activation of fluorogenic peptide hydrolysis by the proteasome in the presence of REG variants; type: biochemical; conditions: for Stimulation of cleavage (x-fold) AAF-MCA: substrate AAF-MCA; for Stimulation of cleavage (x-fold) DEVD-MCA: substrate DEVD(SEQ ID NO: 8)-MCA; for Stimulation of cleavage (x-fold) FSR-MCA: substrate FSR-MCA; for Stimulation of cleavage (x-fold) IEGR-MCA: substrate IEGR(SEQ ID NO: 5)-MCA; for Stimulation of cleavage (x-fold) IETD-MCA: substrate IETD(SEQ ID NO: 6)-MCA; for Stimulation of cleavage (x-fold) LGHD-MCA: substrate LGHD(SEQ ID NO: 7)-MCA; for Stimulation of cleavage (x-fold) LY-MCA: substrate LY-MCA; for Stimulation of cleavage (x-fold) VLK-MCA: substrate VLK-MCA; for Stimulation of cleavage (x-fold) YVAD-MCA: substrate YVAD(SEQ ID NO: 9)-MCA

Row | Relative affinity for proteasome (proteasome [1]) | Hydrolysis of P21 by the proteasome (proteasome [3]) | % Degraded, substrate F1-EPQPQ (proteasomes [4]) [%] | % Degraded, substrate F1-KSQPQ (proteasomes [4]) [%] | % Degraded, substrate F1-QHQ (proteasomes [4]) [%] | % Degraded, substrate F1-QPQ (proteasomes [4]) [%] | % Degraded, substrate F1-QQQ (proteasomes [4]) [%] | Stimulation of cleavage (x-fold) LLE [5] [x-fold] | Stimulation of cleavage (x-fold) LLVY [5] [x-fold] | Stimulation of cleavage (x-fold) LRR [5] | Stimulation of cleavage (x-fold) AAF-MCA [8] [x-fold] | Stimulation of cleavage (x-fold) DEVD-MCA [8] [x-fold] | Stimulation of cleavage (x-fold) FSR-MCA [8] [x-fold] | Stimulation of cleavage (x-fold) IEGR-MCA [8] [x-fold] | Stimulation of cleavage (x-fold) IETD-MCA [8] [x-fold] | Stimulation of cleavage (x-fold) LGHD-MCA [8] [x-fold] | Stimulation of cleavage (x-fold) LY-MCA [8] [x-fold] | Stimulation of cleavage (x-fold) VLK-MCA [8] [x-fold] | Stimulation of cleavage (x-fold) YVAD-MCA [8] [x-fold] | Substance | Percent heptamer [2] [%] | also measured
1 | 100 | decreased | 5 | 15 | 5 | 5 | 15 | 0.6 | 0.4 | 12 x-fold and 11 x-fold | 1 | 2 | 7 | 1 | 1 | 1 | 2 | 5 | 0.9 | REGγ: wild-type 11S REG proteasome activator subunit, a homo-heptamer found principally in the nucleus | >95 | Percentage that remained heptamers on rechromatography ([2]; Superdex 200 second gel filtration): remained fully heptameric; Degradation of polyQ peptides (proteasomes [4]; result in words): resistant to degradation; Degradation of C31 peptide by proteasomes (proteasomes [6]): Only trace amounts; Increase in rate of CT/PGPH labeling over proteasome alone [7]: 4.4±1.7 fold; Increase in rate of T-subunit labeling over proteasome alone [7]: 4.7±2.6 fold; Stimulation of cleavage of the LRR-MCA substrate ([8]; compared to the basal rate in the absence of REGγ (Example 10)): 10-20 fold; Proteasomal cleavage of sucLLVY-MCA ([8]; result in words): does not promote
2 | 90 | markedly increased | – | – | – | – | – | 9 | 14 | 15 x-fold | 4 | 9 | 7 | 2 | 26 | 11 | 3 | 6 | 8 | γK188D: mutant REGγ in which Lys188 was changed to Asp | 50 | Heptamers dissociated during the second gel filtration [2]: More than half; Activation properties compared with REGα [5]: virtually identical to REGα
3 | 90 | markedly increased | 80 | 80 | 50 | 50 | >95 | 9 | 14 | 15 x-fold | 4 | 8 | 7 | 2 | 21 | 10 | 3 | 6 | 7 | γK188E: mutant REGγ in which Lys188 was changed to Glu | 50 | Heptamers dissociated during the second gel filtration [2]: More than half; Activation properties compared with REGα [5]: virtually identical to REGα; Degradation of C31 peptide by proteasomes (proteasomes [6]): extensively degraded; Increase in rate of CT/PGPH labeling over proteasome alone [7]: 11.9±4.8 fold; Increase in rate of T-subunit labeling over proteasome alone [7]: 10.8±4.9 fold; Cleavage of peptides diagnostic for the CT-like or PGPH active sites ([8]; result in words): substantially more than REGγ

— US20040233833A1, “Methods for identifying compounds with thrapeutic potential for treatment of central Neurodegenerative diseases resulting from abnormal protein or peptide accumulation” (priority 2001, published 2004)
